The results in this text go back to patent US20240342310A1 (UNIVERSITY OF VIRGINIA PATENT FOUNDATION, published 2024).

This test has as its target T1, fibronectin leucine rich transmembrane protein 3 (FLRT3) (UniProt Q9NZU0 29-649, limits assumed).
T1 sequence (looked up): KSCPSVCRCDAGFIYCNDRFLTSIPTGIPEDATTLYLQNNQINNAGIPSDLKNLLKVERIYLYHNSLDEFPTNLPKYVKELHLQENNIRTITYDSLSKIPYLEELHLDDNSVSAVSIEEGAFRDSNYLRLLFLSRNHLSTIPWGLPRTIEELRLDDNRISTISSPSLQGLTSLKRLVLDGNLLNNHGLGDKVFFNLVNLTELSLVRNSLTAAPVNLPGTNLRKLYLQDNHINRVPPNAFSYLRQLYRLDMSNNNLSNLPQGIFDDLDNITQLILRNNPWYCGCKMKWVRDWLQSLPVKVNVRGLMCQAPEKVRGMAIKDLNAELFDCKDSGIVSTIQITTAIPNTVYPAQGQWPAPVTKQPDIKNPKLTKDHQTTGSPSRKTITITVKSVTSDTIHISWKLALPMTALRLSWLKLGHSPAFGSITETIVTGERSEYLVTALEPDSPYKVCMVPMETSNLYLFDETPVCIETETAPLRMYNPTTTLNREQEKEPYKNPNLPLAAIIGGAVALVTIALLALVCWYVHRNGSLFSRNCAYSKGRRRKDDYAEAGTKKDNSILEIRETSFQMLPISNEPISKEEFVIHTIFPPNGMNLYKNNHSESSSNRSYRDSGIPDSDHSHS
The test is described as follows: co-immunoprecipitation (data not shown).

B1: circCCDC7-180aa (other)
chain: MQVGNSQTKVKGEDSKNIPLEKETRKSLVSDSGGQRTSDKIQEYPQITAQSGRLIEKSSEKKRSSPAISDLSQILKSQDESAFLESSNEVSVAENQSYKSPSETHDKSLTTVSSSKEVQDSLSVGTLAQKNETVISPFILPPVLTESKKADVSEEQLQKMTEEQTYQAAEKSQESSTSGN
notes: All other experiments on the protein used the C-terminally 3xFLAG-tagged form expressed from plenti-ciR-GFP-T2A; also called 180aa protein encoded by circCCDC7(15, 16, 17, 18, 19); CCDC719-15 encoded protein; not shown: 3xFLAG tag inserted just before the stop codon in the expression construct
On to B1, for which the binding result is listed as “no binding”.
